Measured values reported in patent publication US20220177834A1, “STABLE SYSTEM FOR THE IN VITRO CULTURE OF CEREBELLAR GRANULE CELL PRECURSORS (GCP), STABLE METHOD FOR THE IN VITRO CULTURE OF SAID CELLS AND USE OF SAID SYSTEM OR METHOD FOR IN VITRO CULTURE” (UNIVERSITA DEGLI STUDI Dl ROMA "LA SAPIENZA", priority 2019, published 2022).

Tests used:
Shh pathway = Shh pathway expression (Gli1, N-Myc; Western Blot, real time Q-PCR) in GCP neurosphere cultures; type: cell-based, mouse; conditions: factor alone, FIG. 4
Procedure: (§1) After surgical resection from a mouse on the seventh day of postnatal life (P7) the cerebellum was mechanically shredded in a buffer containing HBSS, glucose and antibiotics, and DNase (at concentrations as defined above) and the individual cells thus obtained were counted and plated at a dilution of 16000 cells/cm^2 on a medium composed of DMEM-F12, glucose, Vitamin A-free B27, insulin, NALC, heparin, antibiotics (at concentrations as defined above) and SAG (200 nM) and EGF ([…]). On this medium the cells can be enriched and maintained for an unlimited time, after periodical dissociation of the spheres with Accutase® (2-3 times per week) and propagation by dilution (to prevent excessive growth and consequent death from nutrient deficiency and hypoxia). The reaction conditions were as described above.

GCP cells = assay: Clonogenicity / long-term propagation of GCP neurosphere cultures; type: cell-based, mouse
Procedure: as §1

B1: EGF: Epidermal Growth Factor (protein, UniProt P01133 23-1207, looked up)
Pro-epidermal growth factor: PQHWSCPEGTLAGNGNSTCVGPAPFLIFSHGNSIFRIDTEGTNYEQLVVDAGVSVIMDFHYNEKRIYWVDLERQLLQRVFLNGSRQERVCNIEKNVSGMAINWINEEVIWSNQQEGIITVTDMKGNNSHILLSALKYPANVAVDPVERFIFWSSEVAGSLYRADLDGVGVKALLETSEKITAVSLDVLDKRLFWIQYNREGSNSLICSCDYDGGSVHISKHPTQHNLFAMSLFGDRIFYSTWKMKTIWIANKHTGKDMVRINLHSSFVPLGELKVVHPLAQPKAEDDTWEPEQKLCKLRKGNCSSTVCGQDLQSHLCMCAEGYALSRDRKYCEDVNECAFWNHGCTLGCKNTPGSYYCTCPVGFVLLPDGKRCHQLVSCPRNVSECSHDCVLTSEGPLCFCPEGSVLERDGKTCSGCSSPDNGGCSQLCVPLSPVSWECDCFPGYDLQLDEKSCAASGPQPFLLFANSQDIRHMHFDGTDYGTLLSQQMGMVYALDHDPVENKIYFAHTALKWIERANMDGSQRERLIEEGVDVPEGLAVDWIGRRFYWTDRGKSLIGRSDLNGKRSKIITKENISQPRGIAVHPMAKRLFWTDTGINPRIESSSLQGLGRLVIASSDLIWPSGITIDFLTDKLYWCDAKQSVIEMANLDGSKRRRLTQNDVGHPFAVAVFEDYVWFSDWAMPSVMRVNKRTGKDRVRLQGSMLKPSSLVVVHPLAKPGADPCLYQNGGCEHICKKRLGTAWCSCREGFMKASDGKTCLALDGHQLLAGGEVDLKNQVTPLDILSKTRVSEDNITESQHMLVAEIMVSDQDDCAPVGCSMYARCISEGEDATCQCLKGFAGDGKLCSDIDECEMGVPVCPPASSKCINTEGGYVCRCSEGYQGDGIHCLDIDECQLGEHSCGENASCTNTEGGYTCMCAGRLSEPGLICPDSTPPPHLREDDHHYSVRNSDSECPLSHDGYCLHDGVCMYIEALDKYACNCVVGYIGERCQYRDLKWWELRHAGHGQQQKVIVVAVCVVVLVMLLLLSLWGAHYYRTQKLLSKNPKNPYEESSRDVRSRRPADTEDGMSSCPQPWFVVIKEHQDLKNGGQPVAGEDGQAADGSMQPTSWRQEPQLCGMGTEQGCWIPVSSDKGSCPQVMERSFHMPSYGTQTLEGGVEKPHSLLSANPLWQQRALDPPHQMELTQ
modifications: Pro-epidermal growth factor
Shh pathway
  expression of markers typical of GCP: does not express the markers typical of GCP
GCP cells
  proliferative power of GCP cells: ensures its unlimited proliferative power
